Columns and labels:
[1] = molecular target: MUC5ac mucin (PAM4 antigen) from CaPan1 human pancreatic carcinoma (human) (UniProt P98088); assay: sandwich EIA, hPAM4 capture of antigen from CPM1, MAb probe at 10 µg/mL (FIG. 26)
[2] = molecular target: MUC5ac mucin (PAM4 antigen) from CaPan1 human pancreatic carcinoma (human) (UniProt P98088); assay: inhibition EIA on CPM1-coated plates; competitor hPAM4 at […]
[3] = molecular target: MUC5ac mucin (PAM4 antigen) from CaPan1 human pancreatic carcinoma (human) (UniProt P98088); assay: ELISA on target mucin antigen (FIG. 9)
[4] = molecular target: MUC5ac mucin (PAM4 antigen) from CaPan1 human pancreatic carcinoma (human) (UniProt P98088); assay: size exclusion chromatography of TF10/111In-IMP-288 with excess mucin
[5] = molecular target: MUC5ac mucin (PAM4 antigen) from CaPan1 human pancreatic carcinoma (human) (UniProt P98088); assay: radiolabeled TF10 with MUC5ac, size exclusion chromatography (not shown)
[6] = molecular target: IMP-288 DOTA-di-HSG hapten-peptide; assay: 111In-IMP-288 with TF10, size exclusion chromatography (not shown)

Kd [1]	ICmax (maximal % inhibition) [2]	EC50 [3]	percent of TF10-bound 111In-IMP-288 shifted by mucin [4]	immunoreactive fraction bound [5]	percent of peptide bound [6]	Substance
14.3 µg/mL	25.5%					45M1 anti-MUC5ac MAb (antibody)
		1.42 nM	92%	87%	90%	TF10 bispecific ([hPAM4]2 x h679) DNL construct (bispecific antibody)
